In paper PMC3638900 one finds net change in specificity (H1 over H5) against HB36.4 data, which are given here for one substance.

The experiment has as its target HB36.4 I58E displayed on the yeast surface. The experiment is described as follows: flow cytometry on cells. For orientation: A flow cytometer gives signals particle by particle.

Some results are limits rather than exact numbers.

With “A/Vietnam/1203/2004 (H5N1) hemagglutinin, biotinylated (natural protein)”, the net change in specificity (H1 over H5) against HB36.4 was more than 30 fold.
